Laboratory results from patent publication US20130115220A1, “METHOD FOR PREVENTION OR TREATMENT OF METABOLIC SYNDROME” (DAINIPPON SUMITOMO PHARMA CO., LTD., priority 2010, published 2013).

How the values were obtained:
3T3-L1 preadipocytes = assay: Differentiation of 3T3-L1 preadipocytes into mature adipocytes, lipid droplet formation by oil-red-O; type: cell-based
Protocol: To examine the function of AIM produced by macrophage that infiltrated into adipose tissue on the surrounding adipocytes, an experiment was performed to load AIM in the culture process for differentiation of 3T3-L1 preadipocytes into mature adipocytes.
As AIM, recombinant AIM protein (rAIM) of mouse was used. rAIM was prepared by culturing human-derived HEK293T cells transfected with a vector expressing mouse AIM (pCAGGS-mAIM-HA plasmid) in a serum-free medium (FreeStyle™ 293 Expression Medium; Invitrogen). rAIM was purified from the culture supernatant thereof using an anti-HA antibody column. In other Reference Examples shown below, AIM used was a similar rAIM protein. AIM was loaded by adding AIM to a culture medium at a concentration of 5 μg/ml.
In addition, differentiation of 3T3-L1 cells was induced as shown in FIG. 13 by first proliferating 3T3-L1 cells by cultivating for 4 days (day(−2)-day 2), after which cultivating in a culture medium containing insulin, dexamethasone (DEX) and isobutylmethylxanthine (IBMX) for 2 days (day 2-day 4) to start differentiation induction stimulation, and further cultivating in a culture medium containing insulin for 2 days (day 4-day 6).
After the differentiation induction stimulation period (day 2-day 6), the cells were continuously cultured in a culture medium free of such differentiation induction stimulation factors. Then, the cells on day 10 day from the start of the differentiation induction stimulation (day 12) were stained with oil-red-O, and the state of differentiation of 3T3-L1 cells into mature adipocytes was observed.

AIM-/- mice = assay: Body weight and fat amount of HFD-fed AIM-/- mice; type: in vivo; details: AIM-/- mice on HFD, intraperitoneal 300 μg/injection/mouse twice a week, 5 weeks, versus BSA
Protocol: Then, rAIM was intraperitoneally administered twice a week (n=6; 300 μg/injection/mouse) to AIM^−/− mice for 5 weeks while feeding with HFD, and the body weight and adipose tissue amount were measured.

FAS [1] = assay: Co-immunoprecipitation of AIM-HA and FLAG-FAS or FAS domains in HEK 293T cells; type: binding; details: Flag-labeled FAS domains in HEK293T cells stably expressing AIM-HA
Excerpt: (§1) In HEK 293T cells, rAIM labeled with HA-tag and FAS labeled with FLAG-tag were co-expressed, and the binding of AIM and FAS was confirmed by co-immunoprecipitation using an anti-Flag antibody or anti-HA antibody.
(§2) Then, the AIM binding region in FAS was examined. FAS contains 8 domains of keto acyl synthase (KS), malonyl/acetyl transferase (MAT), dehydrase (DH), central core (CC), enoylreductase (ER), keto reductase (KR), acylcarrier protein (ACP) and thioesterase (TE).
(§3) The N-terminal of each domain of FAS was labeled with Flag sequence, and expressed in HEK293T cells where AIM-HA is stably expressed. The binding of AIM-HA and each domain of FAS was confirmed by co-immunoprecipitation using an anti-Flag antibody or anti-HA antibody.
(§4) The sequence encoding full-length FAS cDNA (nucleotide: +1-7515) labeled with FLAG-tag was constructed using a part of the cDNA clone provided by Dr. Ohara (Kazusa DNA Research Institute) and some fragments cloned by RT-PCR and pFLAG-CMV2 vector (Sigma).
(§5) A cDNA fragment encoding KS, MAT, DH, CC, ER, KR, ACP or TE was prepared by subcloning to pFLAG-CMV2 vector by using full-length FAS cDNA as a template.

AIM knockout mice = assay: Macrophage infiltration into adipose tissue after systemic rAIM administration; type: in vivo, mouse; details: intravenous injection 50 μg/body/injection, 3 weeks
Protocol: Then, rAIM was systemically administered to the AIM knockout mice by intravenous injection (50 μg/body/injection). After the administration was continued for 3 weeks, a section produced from the visceral fat tissue was stained with an anti-macrophage monoclonal antibody (F4/80).

FAS [2] = molecular target: T1, FAS (Mus musculus, UniProt P19096); assay: Co-immunoprecipitation of AIM-HA and FLAG-FAS or FAS domains in HEK 293T cells; type: binding; set-up: expressed in transfected cells; host or cells: HEK 293T cells co-expressing AIM-HA; details: HEK 293T cells co-expressing HA-tag rAIM and FLAG-tag FAS
T1 sequence (P19096 whole entry, the tested form may be a part): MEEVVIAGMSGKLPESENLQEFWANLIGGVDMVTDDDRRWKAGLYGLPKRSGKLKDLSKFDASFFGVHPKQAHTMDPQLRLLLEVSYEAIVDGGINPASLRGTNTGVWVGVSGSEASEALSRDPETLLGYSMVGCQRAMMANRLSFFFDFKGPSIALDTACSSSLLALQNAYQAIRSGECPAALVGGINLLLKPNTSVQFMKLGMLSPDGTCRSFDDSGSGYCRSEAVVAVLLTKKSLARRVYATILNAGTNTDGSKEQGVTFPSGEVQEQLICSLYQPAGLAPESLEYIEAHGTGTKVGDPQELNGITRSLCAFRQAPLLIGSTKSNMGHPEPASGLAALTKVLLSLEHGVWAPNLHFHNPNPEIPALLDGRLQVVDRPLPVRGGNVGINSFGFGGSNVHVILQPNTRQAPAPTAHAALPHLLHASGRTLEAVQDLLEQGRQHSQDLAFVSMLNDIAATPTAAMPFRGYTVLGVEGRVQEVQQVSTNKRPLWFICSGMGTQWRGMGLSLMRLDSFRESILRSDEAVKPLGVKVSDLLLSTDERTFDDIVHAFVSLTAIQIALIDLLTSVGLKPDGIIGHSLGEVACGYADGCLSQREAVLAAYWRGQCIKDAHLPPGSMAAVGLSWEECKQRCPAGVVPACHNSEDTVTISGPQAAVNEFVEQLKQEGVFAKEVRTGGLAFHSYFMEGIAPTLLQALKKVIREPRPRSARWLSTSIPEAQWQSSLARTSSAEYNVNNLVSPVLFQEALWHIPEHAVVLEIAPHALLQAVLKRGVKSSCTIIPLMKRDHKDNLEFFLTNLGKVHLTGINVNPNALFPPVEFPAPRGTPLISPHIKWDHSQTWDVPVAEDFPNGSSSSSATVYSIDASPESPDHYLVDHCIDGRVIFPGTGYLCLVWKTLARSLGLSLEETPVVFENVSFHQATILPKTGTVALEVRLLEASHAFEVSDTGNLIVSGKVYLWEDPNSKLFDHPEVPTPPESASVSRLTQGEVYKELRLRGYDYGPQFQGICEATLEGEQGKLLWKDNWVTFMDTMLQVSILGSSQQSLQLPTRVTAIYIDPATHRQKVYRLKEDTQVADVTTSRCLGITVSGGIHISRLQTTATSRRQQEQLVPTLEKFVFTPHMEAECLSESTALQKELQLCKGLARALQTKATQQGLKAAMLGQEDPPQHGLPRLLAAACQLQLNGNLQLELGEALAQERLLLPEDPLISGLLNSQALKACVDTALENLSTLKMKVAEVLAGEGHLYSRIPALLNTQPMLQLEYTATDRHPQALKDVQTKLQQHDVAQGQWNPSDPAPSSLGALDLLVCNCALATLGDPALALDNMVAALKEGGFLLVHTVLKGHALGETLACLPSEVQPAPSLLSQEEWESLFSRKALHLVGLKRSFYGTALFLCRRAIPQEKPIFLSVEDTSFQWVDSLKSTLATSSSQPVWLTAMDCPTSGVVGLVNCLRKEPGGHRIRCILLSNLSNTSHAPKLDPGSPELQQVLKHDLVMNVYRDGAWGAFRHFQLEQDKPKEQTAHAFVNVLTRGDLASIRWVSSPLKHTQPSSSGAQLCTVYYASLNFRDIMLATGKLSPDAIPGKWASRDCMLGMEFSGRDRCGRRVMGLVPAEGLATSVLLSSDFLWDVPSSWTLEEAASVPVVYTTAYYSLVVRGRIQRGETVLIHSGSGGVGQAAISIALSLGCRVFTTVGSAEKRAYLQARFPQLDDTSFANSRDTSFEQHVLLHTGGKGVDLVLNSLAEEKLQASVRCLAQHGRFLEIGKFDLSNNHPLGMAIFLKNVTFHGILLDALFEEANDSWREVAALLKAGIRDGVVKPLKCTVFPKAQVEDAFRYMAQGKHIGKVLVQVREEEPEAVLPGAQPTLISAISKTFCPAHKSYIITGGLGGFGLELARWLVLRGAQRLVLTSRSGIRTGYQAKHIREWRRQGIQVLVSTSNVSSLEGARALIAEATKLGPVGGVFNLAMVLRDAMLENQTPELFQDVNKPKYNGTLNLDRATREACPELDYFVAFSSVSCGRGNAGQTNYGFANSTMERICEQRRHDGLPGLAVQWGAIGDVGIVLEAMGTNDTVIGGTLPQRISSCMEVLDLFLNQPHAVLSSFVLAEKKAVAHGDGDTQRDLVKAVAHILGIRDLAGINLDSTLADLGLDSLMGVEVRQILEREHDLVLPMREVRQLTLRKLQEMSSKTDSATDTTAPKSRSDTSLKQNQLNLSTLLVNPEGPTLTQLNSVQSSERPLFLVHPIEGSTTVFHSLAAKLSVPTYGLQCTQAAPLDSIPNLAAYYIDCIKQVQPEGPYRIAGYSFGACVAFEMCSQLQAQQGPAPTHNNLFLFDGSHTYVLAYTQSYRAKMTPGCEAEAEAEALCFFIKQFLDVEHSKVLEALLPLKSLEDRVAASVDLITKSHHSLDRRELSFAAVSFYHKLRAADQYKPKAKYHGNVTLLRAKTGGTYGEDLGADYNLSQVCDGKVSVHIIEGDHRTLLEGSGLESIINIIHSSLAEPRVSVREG
Excerpt: as §1, §2, §3, §4, §5

FAS [3] = molecular target: T1, FAS; assay: Co-immunoprecipitation of rAIM-HA and endogenous FAS in adipose tissue; type: binding; set-up: endogenous; details: adipose tissue of AIM-/- mice, 100 μg injected, 3 hr
Protocol: rAIM labeled with HA-tag was directly injected to adipose tissue of AIM^−/− mice (at several points, 100 μg in total). After 3 hr, to confirm binding of rAIM-HA and endogenous FAS, co-immunoprecipitation by anti-HA antibody was performed using adipose tissue. The presence of FAS in the precipitate was analyzed by Western blotting (WB).

3T3-L1 adipocytes = assay: Expression of lipid droplet formation-related genes and PREF-1 by real-time PCR; type: cell-based, mouse; details: rAIM 5 μg/ml
Protocol: rAIM was loaded (5 μg/ml) on 3T3-L1 adipocytes, mRNA of lipid droplet formation-related genes (FSP27, Perilipin, and Adipophilin) was measured on day 2, day 4, and day 6 using 7500 Fast Real-Time PCR system (Invitrogen; CA, USA) and by the ΔΔCT method (each n=3).
Similarly, mRNA of PREF-1 of preadipocyte marker was also measured. The measurement value was standardized with GAPDH.
Relative expression level was determined with that on day 0 as 1.0.

CD36-/- mice = assay: rAIM uptake into adipose tissue of CD36+/+ and CD36-/- mice; type: in vivo; details: rAIM intravenous 300 μg/mouse, 16 hr
Protocol: Then, CD36^+/+ mice (wild-type) and CD36^−/− mice (Febbraio et al., J. Biol. Chem., 1999, 274:19055-19062) were intravenously injected with rAIM (300 μg/mouse in PBS), sacrificed 16 hr later, and a section was prepared from adipose tissue. AIM and macrophage F4/80 in the section were stained.

[4] = system: differentiated 3T3-L1 cells; assay: Lipid droplet fusion in differentiated 3T3-L1 cells, oil-red-O; type: cell-based, mouse; details: rAIM 5 μg/ml
Protocol: The differentiated 3T3-L1 cells were loaded with rAIM (5 μg/ml) according to the schedule shown in FIG. 13, E. The oil-red-0 staining was performed before and after rAIM loading.
The relative size of lipid droplet (Relative droplet size) was determined from an average diameter of 50 lipid droplets. […] The number of cells containing lipid droplets per unit area was measured in 5 different fields and the average was determined.

B1: rAIM: recombinant AIM protein (rAIM) of mouse, HA-tagged, prepared in HEK293T cells (protein)
chain: ESPTKVQLVGGAHRCEGRVEVEHNGQWGTVCDDGWDRRDVAVVCRELNCGAVIQTPRGASYQPPASEQRVLIQGVDCNGTEDTLAQCELNYYVFDCSHEEDAGAQCENPDSDLLFIPEDVRLVDGPGHCQGRVEVLHQSQWSTVCKAGWNLQVSKVVCRQLGCGRALLTYGSCNKNTQGKGPIWMGKMSCSGQEANLRSCLLSRLENNCTHGEDTWMECEDPFELKLVGGDTPCSGRLEVLHKGSWGSVCDDNWGEKEDQVVCKQLGCGKSLHPSPKTRKIYGPGAGRIWLDDVNCSGKEQSLEFCRHRLWGYHDCTHKEDVEVICTDFDV
modifications: left off: small tags and cut ends
notes: recombinant AIM protein (rAIM) of mouse, HA-tagged, prepared in HEK293T cells
3T3-L1 preadipocytes; AIM concentration decreased to 1 μg/ml and 0.1 μg/ml
  differentiation suppressive effect: decreased
3T3-L1 preadipocytes; AIM continuously loaded day(-2)-day 12
  differentiation of 3T3-L1 cells into adipocytes: completely suppressed
3T3-L1 preadipocytes; AIM loading on 3T3-L1 cells
  number of dead cells: did not increase
3T3-L1 preadipocytes; schedule B, AIM 5 μg/ml loaded day 2-day 12
  differentiation of 3T3-L1 cells (cells having lipid droplet, oil-red-O, day 12): nearly completely suppressed
3T3-L1 preadipocytes; schedule C, AIM 5 μg/ml loaded only day 2-day 4
  differentiation of 3T3-L1 cells (cells having lipid droplet, oil-red-O, day 12): nearly completely suppressed
3T3-L1 preadipocytes; schedule D, AIM loaded only before differentiation induction, day(-2)-day 2
  differentiation of 3T3-L1 cells into mature adipocytes: not suppressed
AIM-/- mice
  increase in body weight: significantly small increase
  increase in subcutaneous fat: significantly small increase
  increase in visceral fat: significantly small increase
FAS [1]
  FAS domains bound to AIM: ER, DH, TE and CC
AIM knockout mice
  infiltration of macrophages into adipose tissue (F4/80 staining of visceral fat section): infiltration of macrophages into adipose tissue
FAS [2]
  binding of AIM and FAS (co-immunoprecipitation): coprecipitated
FAS [3]
  binding of rAIM-HA and endogenous FAS (co-immunoprecipitation, Western blotting): coprecipitated
3T3-L1 adipocytes; day 2, relative to day 0
  expression of lipid droplet formation-related genes (FSP27, Perilipin, Adipophilin): decreased markedly
3T3-L1 adipocytes; during rAIM treatment
  expression of preadipocyte markers (PREF-1): did not increase
CD36-/- mice
  AIM signal in adipocyte: markedly decreased
[4]; 6 days
  number of lipid droplet-containing cells per unit area: significantly decreased
  relative size of lipid droplets: significantly decreased
[4]; 6 days of culture
  lipid droplet in the cell (oil-red-O): markedly decreased
